This note sets out measurements from PMC11272045.

The target in this assay is recombinant his-tag subtilisin-like protease-1 (SspA-1) (Streptococcus suis serotype 2 strain 05ZYH33). Nature of the assay: MST.

“recombinant glutathione S-transferase (GST)-tagged human TLR2 (from UniProt O60603 21-784) (receptor)”: the Kd was found to be 24.3 nM.

By Kd is commonly meant the equilibrium constant for the complex coming apart.
